Data on one molecule can be found in publication PMC6707248, “hCINAP regulates the DNA-damage response and mediates the resistance of acute myelocytic leukemia cells to therapy” (Nature Communications, 2019).

The target of this experiment is T1, GST-NPM1 (unSUMOylated) (UniProt P06748 1-294).
T1 construct: Nucleophosmin (NPM1); also called GST-tagged NPM1; unSUMOylated GST-NPM1; source: E. coli, purified
Put plainly: pull-down; in vitro GST pull-down; His-hCINAP and GST-NPM1 purified from E. coli; GST protein as negative control. Conditions: both partners purified.

T1 sequence (P06748 whole entry): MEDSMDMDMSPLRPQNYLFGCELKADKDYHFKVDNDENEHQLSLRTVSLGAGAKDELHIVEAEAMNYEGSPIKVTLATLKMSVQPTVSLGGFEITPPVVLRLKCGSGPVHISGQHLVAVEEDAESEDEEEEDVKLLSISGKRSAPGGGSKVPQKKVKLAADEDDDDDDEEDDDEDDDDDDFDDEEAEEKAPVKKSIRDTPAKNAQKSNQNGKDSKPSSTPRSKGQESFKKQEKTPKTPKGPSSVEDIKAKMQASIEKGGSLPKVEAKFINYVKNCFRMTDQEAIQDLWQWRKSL

B1: His-hCINAP (natural protein, human, UniProt Q9Y3D8 1-172, looked up)
chain: MLLPNILLTGTPGVGKTTLGKELASKSGLKYINVGDLAREEQLYDGYDEEYDCPILDEDRVVDELDNQMREGGVIVDYHGCDFFPERWFHIVFVLRTDTNVLYERLETRGYNEKKLTDNIQCEIFQVLYEEATASYKEEIVHQLPSNKPEELENNVDQILKWIEQWIKDHNS
notes: source: E. coli, purified
In the case of B1, the binding result is “binds”.
